This is an account of results in US12534531 (MacroGenics, dated 2026).

Test [1] addresses T1, human PD-1 expressed on the surface of cells (NSO cells expressing human PD-1; MNFAT-luc2/PD-1 Jurkat cells) (human, UniProt Q15116 21-288).
T1 construct: also called cell surface PD-1; PDCD1 transfected NSO cells expressing PD-1
Briefly: FACS saturation binding on NSO cells expressing human PD-1, goat anti-human-APC, MFI, 1:4 dilutions.

Test [2] deals with soluble cynomolgus monkey PD-1 (scyno PD-1 hFc) cleaved to remove Fc portion (cynomolgus monkey, UniProt B0LAJ3 25-170). Briefly: Biacore, mAb captured on F(ab)2 goat anti-human Fc, analyte scyno PD-1 hFc cleaved of Fc.
Test [3] concerns the target T1, human PD-1 expressed on the surface of …. Briefly: FACS: inhibition of sPD-L1 binding to PD-1 on NSO cells; SM; SD 0.2337. For orientation: Flow cytometry measures light scatter and fluorescence of single cells or particles in a stream.
For test [4] the target is unchanged. Briefly: FACS blocking on NSO cells expressing human PD-1, 1:4 dilutions, MFI; blocked ligand: biotinylated sPD-L1, streptavidin-PE.
For test [5] the target is unchanged. Nature of the test: FACS: inhibition of sPD-L2 binding to PD-1 on NSO cells; SM; SD 0.2893.
In test [6] the target is T2, soluble human PD-1 (the extracellular domain of human PD-1 fused to a His tag) (human, UniProt Q15116 25-170).
T2 construct: also called shPD-1 His; shPD-1-His; not shown: His tag
Briefly: Biacore, mAb captured on F(ab)2 goat anti-human Fc, analyte shPD-1 His. A general note: SPR reads the build-up and loss of mass on a sensor chip optically.

For test [7], the target named is T1, human PD-1 expressed on the surface of …. Nature of the test: FACS saturation binding to NSO cells expressing PD-1; SM; SD 0.3958.
The target is the same in test [8]. Briefly: FACS blocking on NSO cells expressing human PD-1, 1:4 dilutions, MFI; blocked ligand: biotinylated sPD-L2, streptavidin-PE.
The target is the same in test [9]. Nature of the test: FACS saturation binding to NSO cells expressing PD-1; SM; SD 0.8112.
Test [10] concerns the target T3, PD-1 on the surface of CD4+ and CD8+ T cells of cynomolgus monkeys (cynomolgus monkey, UniProt B0LAJ3 25-288).
T3 construct: In vivo occupancy read by flow cytometry; also called PD-1+/CD4+ and PD-1+/CD8+ cells
Nature of the test: flow cytometry competition with labeled hPD-1 mAb 7 (1.2) IgG4 (P) on blood of cynomolgus monkeys given 10 mg/kg.

In test [11] the target is T1, human PD-1 expressed on the surface of …. Briefly: FACS: inhibition of sPD-L1 binding to PD-1 on NSO cells; SM; SD 0.1668.
The target is the same in test [12]. Nature of the test: FACS: inhibition of sPD-L2 binding to PD-1 on NSO cells; SM; SD 0.2563.

B1: hPD-1 mAb 7 (1.2) IgG1 (AA) (antibody)
heavy: not shown
light: EIVLTQSPATLSLSPGERATLSCRASESVDNYGMSFMNWFQQKPGQPPKLLIHAASNQGSGVPSRFSGSGSGTDFTLTISSLEPEDFAVYFCQQSKEVPYTFGGGTKVEIKRTVAAPSVFIFPPSDEQLKSGTASVVCLLNNFYPREAKVQWKVDNALQSGNSQESVTEQDSKDSTYSLSSTLTLSKADYEKHKVYACEVTHQGLSSPVTKSFNRGEC
notes: also called h1PD-1 mAb 7(1.2) IgG1 (AA)
Regarding B1, the “EC50 (read off the curve)” value in test [1] is around 0.08 µg/mL. Moreover, the Kd in test [2] was 4.9 nM; in [6], 1.5 nM. For the same molecule, the IC50 worked out at 732 nM in [3] and 977 nM in [5]. Further, the “IC50 (read off the curve)” value in [4] is around 0.01 ug/test; in test [8], around 0.02 ug/test. For the same molecule, the EC50 in test [7] was 1090 nM.

B2: hPD-1 mAb 7 (1.2) IgG4 (P) (antibody)
heavy: not shown
light: EIVLTQSPATLSLSPGERATLSCRASESVDNYGMSFMNWFQQKPGQPPKLLIHAASNQGSGVPSRFSGSGSGTDFTLTISSLEPEDFAVYFCQQSKEVPYTFGGGTKVEIKRTVAAPSVFIFPPSDEQLKSGTASVVCLLNNFYPREAKVQWKVDNALQSGNSQESVTEQDSKDSTYSLSSTLTLSKADYEKHKVYACEVTHQGLSSPVTKSFNRGEC
notes: also called MGD012
Molecule B2 gave an EC50 in test [9] of 1210 nM. Further, in test [10], the “PD-1 binding on CD4+ and CD8+ T cells (% bound, in vivo)” value is at least 80%. For the same molecule, in [1], the “EC50 (read off the curve)” value is around 0.1 µg/mL. Besides, the values for the Kd in [2] and in test [6] were 4.6 nM and 1.5 nM, respectively. For the same molecule, the IC50 was 519 nM in test [11] and 1040 nM in [12]. Also, the figures for the “IC50 (read off the curve)” value in test [4] and in test [8] were around 0.01 ug/test and around 0.02 ug/test, respectively.

The EC50 (read off the curve) is the concentration giving half of the maximal effect. Usually Kd stands for the equilibrium constant for the complex coming apart. One may read the IC50 as the point on the concentration scale where inhibition reaches its midpoint. For orientation: EC50 means the concentration at which the effect is half-maximal.
